Data published in article PMC10008561.

How the values were obtained:
human KOR R170A (human) = human KOR R170A (human) (UniProt P41145)
human KOR D155A (human) = human KOR D155A (human) (UniProt P41145)
human KOR R257A (human) = human KOR R257A (human) (UniProt P41145)
human KOR L253A (human) = human KOR L253A (human) (UniProt P41145)

Chain of GαoA fused with Renilla luciferase (Gα-RLuc8) (P09471 whole entry, the tested form may be a part): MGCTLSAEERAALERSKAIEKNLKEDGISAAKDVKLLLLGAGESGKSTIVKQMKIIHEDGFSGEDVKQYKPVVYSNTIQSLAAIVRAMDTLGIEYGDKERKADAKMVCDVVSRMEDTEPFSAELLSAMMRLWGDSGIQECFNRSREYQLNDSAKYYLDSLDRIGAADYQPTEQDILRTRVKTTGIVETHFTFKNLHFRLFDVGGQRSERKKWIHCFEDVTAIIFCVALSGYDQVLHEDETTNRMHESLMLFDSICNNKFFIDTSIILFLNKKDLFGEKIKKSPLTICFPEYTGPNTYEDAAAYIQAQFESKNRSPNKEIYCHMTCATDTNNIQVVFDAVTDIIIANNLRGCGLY
Chain of Gαi2 fused with Renilla luciferase (Gα-RLuc8) (P04899 whole entry, the tested form may be a part): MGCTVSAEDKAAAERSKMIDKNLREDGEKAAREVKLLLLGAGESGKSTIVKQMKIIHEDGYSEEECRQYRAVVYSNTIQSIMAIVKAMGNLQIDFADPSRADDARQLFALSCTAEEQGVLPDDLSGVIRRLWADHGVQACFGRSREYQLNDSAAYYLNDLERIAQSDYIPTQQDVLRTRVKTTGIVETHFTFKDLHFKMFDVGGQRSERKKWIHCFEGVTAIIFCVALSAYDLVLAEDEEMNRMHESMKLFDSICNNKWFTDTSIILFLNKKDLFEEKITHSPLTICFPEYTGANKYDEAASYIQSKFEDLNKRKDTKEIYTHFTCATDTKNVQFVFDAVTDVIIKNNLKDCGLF
Chain of Gαz fused with Renilla luciferase (Gα-RLuc8) (P19086 whole entry, the tested form may be a part): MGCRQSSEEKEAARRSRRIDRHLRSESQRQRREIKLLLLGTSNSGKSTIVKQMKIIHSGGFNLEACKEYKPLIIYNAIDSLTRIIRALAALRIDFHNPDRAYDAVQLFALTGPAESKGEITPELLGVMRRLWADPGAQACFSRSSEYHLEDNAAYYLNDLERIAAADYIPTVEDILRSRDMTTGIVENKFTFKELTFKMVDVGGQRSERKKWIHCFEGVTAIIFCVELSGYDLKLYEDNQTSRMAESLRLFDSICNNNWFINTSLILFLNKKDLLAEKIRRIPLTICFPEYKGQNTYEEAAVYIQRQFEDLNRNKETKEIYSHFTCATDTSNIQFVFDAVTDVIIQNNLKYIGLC
Chain of Gα gustducin fused with Renilla luciferase (Gα-RLuc8) (A8MTJ3 whole entry, the tested form may be a part): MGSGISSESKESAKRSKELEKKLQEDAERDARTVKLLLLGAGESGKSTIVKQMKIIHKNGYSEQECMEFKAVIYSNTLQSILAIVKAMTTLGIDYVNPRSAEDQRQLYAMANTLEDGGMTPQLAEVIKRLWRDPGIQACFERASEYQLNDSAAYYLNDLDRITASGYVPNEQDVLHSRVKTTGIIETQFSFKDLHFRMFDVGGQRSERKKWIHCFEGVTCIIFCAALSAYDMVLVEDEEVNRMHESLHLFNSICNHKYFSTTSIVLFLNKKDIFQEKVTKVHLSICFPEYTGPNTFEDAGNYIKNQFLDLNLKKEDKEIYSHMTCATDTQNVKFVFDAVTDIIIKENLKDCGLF
Chain of Gαi3 fused with Renilla luciferase (Gα-RLuc8) (P08754 whole entry, the tested form may be a part): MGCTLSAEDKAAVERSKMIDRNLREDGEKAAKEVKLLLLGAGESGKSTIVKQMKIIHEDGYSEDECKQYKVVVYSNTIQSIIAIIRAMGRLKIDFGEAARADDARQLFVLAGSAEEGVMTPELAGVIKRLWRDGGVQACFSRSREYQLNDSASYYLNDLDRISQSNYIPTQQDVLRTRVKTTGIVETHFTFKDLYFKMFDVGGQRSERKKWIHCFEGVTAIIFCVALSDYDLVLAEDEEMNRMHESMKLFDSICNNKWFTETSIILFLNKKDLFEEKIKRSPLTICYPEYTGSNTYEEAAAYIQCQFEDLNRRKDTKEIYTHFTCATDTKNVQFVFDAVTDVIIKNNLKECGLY
Chain of GαoB fused with Renilla luciferase (Gα-RLuc8) (P09471 other isoform, or with tags, fused parts or gaps): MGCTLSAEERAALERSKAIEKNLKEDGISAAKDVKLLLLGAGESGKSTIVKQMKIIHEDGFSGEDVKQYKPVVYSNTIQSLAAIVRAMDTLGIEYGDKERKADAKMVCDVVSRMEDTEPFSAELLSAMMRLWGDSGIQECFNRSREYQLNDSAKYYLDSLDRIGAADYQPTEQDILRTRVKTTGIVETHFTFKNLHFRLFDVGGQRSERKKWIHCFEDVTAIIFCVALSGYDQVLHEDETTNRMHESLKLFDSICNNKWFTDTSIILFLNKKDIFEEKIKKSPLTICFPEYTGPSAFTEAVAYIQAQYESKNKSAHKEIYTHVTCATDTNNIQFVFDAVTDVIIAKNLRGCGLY

Substance	BRET2 G protein activation (TRUPATH); fold decrease of the potency of nalfurafine against wild-type KOR (human KOR R170A (human)) [fold]	BRET2 G protein activation (TRUPATH); fold decrease of the potency of nalfurafine against wild-type KOR (human KOR D155A (human)) [fold]	BRET2 G protein activation (TRUPATH) with nalfurafine; fold decrease against wild-type KOR (human KOR R257A (human)) [fold]	BRET2 G protein activation (TRUPATH) with nalfurafine; fold decrease against wild-type KOR (human KOR L253A (human)) [fold]
Gα gustducin fused with Renilla luciferase (Gα-RLuc8) (from UniProt A8MTJ3 1-354) (natural protein)	10	< 10	10	10
Gαi2 fused with Renilla luciferase (Gα-RLuc8) (from UniProt P04899 1-355) (natural protein)	100	< 10	100	100
Gαi3 fused with Renilla luciferase (Gα-RLuc8) (from UniProt P08754 1-354) (natural protein)	100	< 10	100	100
GαoA fused with Renilla luciferase (Gα-RLuc8) (from UniProt P09471 1-354) (natural protein)	10	< 10	10	10
GαoB fused with Renilla luciferase (Gα-RLuc8) (from UniProt P09471-2 1-354) (natural protein)	10	< 10	10	10
Gαz fused with Renilla luciferase (Gα-RLuc8) (from UniProt P19086 1-355) (natural protein)	10	< 10	10	10
